Reference: patent US20260263521A1, “ANTI-CD200R1 ANTIBODY AND USE THEREOF” (AIMED BIO INC., priority 2023, published 2026)
Numbering of substitutions follows the chain as printed.

How the values were obtained:
[1] = target: T1, human CD200R1 (Homo sapiens, UniProt Q8TD46); experiment: SPR binding kinetics, human CD200R1; conditions: hCD200R1-his captured on anti-His CM5 chip, 1:1 Langmuir fit
T1 sequence (Q8TD46 25-348): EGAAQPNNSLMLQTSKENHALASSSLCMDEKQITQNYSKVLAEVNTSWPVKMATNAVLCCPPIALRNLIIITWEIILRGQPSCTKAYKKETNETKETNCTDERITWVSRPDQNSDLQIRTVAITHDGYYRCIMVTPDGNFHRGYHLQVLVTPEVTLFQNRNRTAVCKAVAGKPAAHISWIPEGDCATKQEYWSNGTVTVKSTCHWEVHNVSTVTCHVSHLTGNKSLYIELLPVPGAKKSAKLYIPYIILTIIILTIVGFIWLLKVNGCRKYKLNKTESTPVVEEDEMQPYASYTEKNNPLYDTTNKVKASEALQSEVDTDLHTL
Experimental: The CD200R1-specific binding ability of the antibodies (P001009 wt, P001009 v1, P001009 v2, P001009 v3, P001009 v4) selected in Example 14 was analyzed using surface plasma resonance (SPR). For the experiment, 30 μg/mL of an anti-histidine antibody was conjugated to a CM5 biacore chip via an amine bond while allowing to flow at 10 μl/min (10,000 RU). Then, 0.25 μg/mL of human or cynomolgus CD200R1 with dual His-tags was captured onto the completed chip for 60 seconds, and the binding ability of each antibody was analyzed. All experiments were performed by association of antibodies for 120 seconds and dissociation of antibodies for 600 seconds. The resulting graphs were fitted using a 1:1 Langmuir binding kinetic model (FIG. 16), and the kinetics of each antibody were calculated.

[2] = tested on: IL-6 in U937-CD200R1 cells; experiment: IL-6 suppression in LPS-treated U937-CD200R1 cells (AlphaLISA); assay type: cell-based, human; conditions: for IL-6: LPS-treated U937-CD200R1 cells, 24 h
Experimental: To determine the binding ability of the candidates to U937-CD200R1-overexpressing cell lines and verify the efficacy thereof, the anti-inflammatory effect of anti-CD200R1 antibodies was analyzed. First, 5×10^6 U937-CD200R1 cells were added to 12 ml of medium, treated with 30 ng/ml of Phorbol 12-myristate 13-acetate (Sigma Aldrich, #P1585), and reacted at 37° C. in 5% CO2 for 24 hours. After reaction, the medium was replaced with RPMI 1640 medium containing only 10% heat-inactivated FBS, and 5×10^6 cells were maintained at 37° C. in 5% CO2 for 24 hours.
Cells were seeded on duplicate onto 96-well round-bottom plates (SPL, #34296) at 1×10^5 cells/50 μl/well. P001009 WT, P001009v1, and the previously published CD200R antibody LY3454738 (US 2020/0087395, I-4P, Eli Lilly) as a positive control were used in this experiment. The drug was serially diluted 10-fold from a maximum concentration of 100 nM and treated to the cells at concentrations of 10 nM, 1 nM, […], respectively. Additional cells were treated with 100 nM of hIgG4 kappa isotype control (Crownvivo, #C0004) as a negative control. Untreated cells were seeded in the same amount of medium (RPMI 1640 containing 10% heat-inactivated FBS) and incubated at 37° C., 5% CO2 for 1 hour. To induce an inflammatory response in drug-treated cells, each well was treated with 10 μl of lipopolysaccharide from Salmonella typhosa (Sigma Aldrich, #L7895) at a concentration of 1 μg/ml. One well was left untreated to assess the induction of inflammatory cytokines. After thorough mixing, the cells were incubated at 37° C. and 5% CO2 for 24 hours.
After centrifugation at 1100 g for 2 minutes, images of the pellets before and after LPS treatment were captured using a microscope (Carl Zeiss, AXIO VERT.A1). After LPS treatment, the pellet appeared as scattered debris (FIG. 18B) rather than uniform spheroids (FIG. 18A). This was observed under a microscope. The supernatant was collected and analyzed for inflammatory cytokines such as TNF-α and IL-6 using an EnVision® multimode plate reader (PerkinElmer). A bead-based cytokine assay was performed using the AlphaLISA immunoassay on the EnVision® instrument. TNF-α(human) AlphaLISA Detection Kit, 500 assay points (PerkinElmer, #AL208C) was used for TNF-α, and the IL-6 (human) AlphaLISA Detection Kit, 500 assay points (PerkinElmer, #AL223C) was used for IL-6. Cytokine levels were determined depending on the concentration of each antibody.

[3] = tested on: Dok2 phosphorylation in Jurkat-CD200R1 cells; experiment: Dok2 protein phosphorylation, Jurkat-CD200R1 reporter cells (PathHunter); assay type: cell-based, human; conditions: for RLU: Jurkat-CD200R1 reporter cells, Fc capture antibody
Experimental: Jurkat-CD200R1 cells were maintained as shown in Example 17 and were then seeded in triplicate onto CulturePlate-384, a White Opaque 384-well microplate (PerkinElmer, #6007688) at a density of 8,000 cells/well (32 μl). AssayComplete Cell Plating 0 Reagent (DiscoverX, #93-0563ROA) was used for cell plating and antibody dilution. The seeded cells were incubated at 37° C. and 5% CO2 for 30 minutes.
During the reaction, an Fc capture antibody, anti-human IgG (Fc-specific) antibody produced in goat (Sigma Aldrich, #12136, 2.3 mg/ml), was diluted in AssayComplete media and incubated at 37° C., 5% CO2 for 30 minutes. After incubation of both the plate containing the cells and the Fc capture antibody, the cells were treated with the Fc capture antibody at a concentration of 50 μg/ml per well. The reaction was incubated for 3 hours at 37° C., 5% CO2. After cross-reactivity with the Fc capture antibody, the cells were treated with a total of three antibodies, as shown in Example 17. The cells were diluted two-fold from a maximum concentration of 50 nM to 25 nM, 12.5 nM, 6.25 nM, 3.12 nM, 1.56 nM, 0.78 nM, 0.39 nM, 0.20 nM, 0.098 nM, and 0.049 nM. After treatment, the result was reacted at room temperature for an additional 2 hours.
The PathHunter Detection kit (DiscoverX, #93-0001) was used to confirm the response of the treated antibodies to the Jurkat-CD200R1 reporter cell line. Final data were analyzed using an Infinite M200 Pro Plate reader (Tecan) to measure the luminescence from phosphorylated Dok2. […] luminescence unit (RLU) is an arbitrary unit representing luminescence, calculated by converting the signal detected by a cross-linked Fc capture antibody.

B1: P001009: phage display anti-CD200R1 clone; VH SEQ ID NO: 79, VL SEQ ID NO: 94 (antibody, V domains shown)
VH: EVQLLESGGGLVQPGGSLRLSCAASGFTFSSYDMSWVRQAPGKGLEWVSWISHGGGSIYYADSVKGRFTISRDNSKNTLYLQMNSLRAEDTAVYYCARDAPAYSAPLFDYWGQGTLVTVSS
VL: QSVLTQPPSASGTPGQRVTISCSGSSSNIGNNAVNWYQQLPGTAPKLLIYYDSNRPSGVPDRFSGSKSGTSASLAISGLRSEDEADYYCAAWDDSLSGYVFGGGTKLTVL
[1]
  Ka: 2.81e+06 M⁻¹ s⁻¹
[2]; log [Ab] (M) −7
  IL-6: 231.7 ± 24.1 pg/mL
[2]; log [Ab] (M) −8
  IL-6: 401.5 ± 9.6 pg/mL
[2]; log [Ab] (M) −9
  IL-6: 1245.6 ± 49.9 pg/mL
[2]; log [Ab] (M) −10
  IL-6: 3398.1 ± 325.5 pg/mL
[2]; log [Ab] (M) −11
  IL-6: 3751.0 ± 144.5 pg/mL
[2]; log [Ab] (M) −12
  IL-6: 4512.7 ± 74.1 pg/mL
[3]
  luminescence due to phosphoDok2: exhibited luminescence due to phosphoDok2
[3]; antibody dose 0.05 nM
  RLU: 10432 ± 2166 a.u.
[3]; antibody dose 0.10 nM
  RLU: 10359 ± 1227 a.u.
[3]; antibody dose 0.20 nM
  RLU: 15184 ± 2826 a.u.
[3]; antibody dose 0.39 nM
  RLU: 10861 ± 917 a.u.
[3]; antibody dose 0.78 nM
  RLU: 25264 ± 1484 a.u.
[3]; antibody dose 1.56 nM
  RLU: 33140 ± 5780 a.u.
[3]; antibody dose 3.13 nM
  RLU: 41203 ± 4810 a.u.
[3]; antibody dose 6.25 nM
  RLU: 56115 ± 6866 a.u.
[3]; antibody dose 12.5 nM
  RLU: 57733 ± 6385 a.u.
[3]; antibody dose 25 nM
  RLU: 50858 ± 8029 a.u.
[3]; antibody dose 50 nM
  RLU: 37120 ± 14299 a.u.

B2: P001009v1: P001009 variant, LC S52 and LC S94 substituted with K and R; VH SEQ ID NO: 79 (antibody, V domains shown)
VH: B1 VH
VL: B1 VL with S53K, S95R
[1]
  Ka: 4.77e+06 M⁻¹ s⁻¹
[2]; log [Ab] (M) −7
  IL-6: 153.7 ± 8.8 pg/mL
[2]; log [Ab] (M) −8
  IL-6: 165.1 ± 8.4 pg/mL
[2]; log [Ab] (M) −9
  IL-6: 454.2 ± 45 pg/mL
[2]; log [Ab] (M) −10
  IL-6: 2439 ± 56.8 pg/mL
[2]; log [Ab] (M) −11
  IL-6: 3517.7 ± 166.3 pg/mL
[2]; log [Ab] (M) −12
  IL-6: 4730.2 ± 99.8 pg/mL
[2]; low nanomolar (nM) drug concentrations
  IL-6 level: maintained low inflammatory cytokine levels
[3]
  luminescence due to phosphoDok2: exhibited luminescence due to phosphoDok2
[3]; antibody dose 0.05 nM
  RLU: 9521 ± 1128 a.u.
[3]; antibody dose 0.10 nM
  RLU: 10677 ± 2258 a.u.
[3]; antibody dose 0.20 nM
  RLU: 17866 ± 1925 a.u.
[3]; antibody dose 0.39 nM
  RLU: 11340 ± 509 a.u.
[3]; antibody dose 0.78 nM
  RLU: 28644 ± 4755 a.u.
[3]; antibody dose 1.56 nM
  RLU: 32863 ± 4207 a.u.
[3]; antibody dose 3.13 nM
  RLU: 29729 ± 3825 a.u.
[3]; antibody dose 6.25 nM
  RLU: 48879 ± 1315 a.u.
[3]; antibody dose 12.5 nM
  RLU: 45830 ± 6990 a.u.
[3]; antibody dose 25 nM
  RLU: 53185 ± 13281 a.u.
[3]; antibody dose 50 nM
  RLU: 32676 ± 5379 a.u.
